{"source": "paper PMC6410682", "binders": {"B1": {"name": "ADR3 DNA duplex (NMR) (dsDNA)", "DNA 1": "CCAGAACATCAAGAACAC", "DNA 2": "GTGTTCTTGATGTTCTGG"}}, "molecular_target": "15N-labeled AR DBD (human, UniProt P10275 558-648)", "sequence (P10275 558-648)": "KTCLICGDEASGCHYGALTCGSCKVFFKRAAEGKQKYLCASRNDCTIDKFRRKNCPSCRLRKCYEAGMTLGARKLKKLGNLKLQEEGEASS", "assay": "NMR"}
{"binder": "B1", "values": [{"measurement": "binding result", "value": "binds"}]}
